What was measured:
[1] = system: soybean cyst nematode (SCN, Heterodera glycines); experiment: Soybean cyst nematode reproduction on soybean after seed treatment, controlled environment (cysts per gram of root tissue or per plant); assay type: in vivo
[2] = system: soybean cyst nematode (SCN); experiment: SCN reproduction after application of enzyme or recombinant strain to soil; assay type: in vivo, Heterodera glycines; details: Table 34; for % Comparison to Control (figure in parentheses): change vs water control; for % Comparison to Control: first figure, water control = 100%; for Average cysts per g of root tissue: free enzyme 0.5 mL/plant to soil, soybean 2830E3, 3 weeks
Experimental: To determine the efficacy of nematicidal enzymes applied to soil, a controlled environment trial was performed with 7-day old soybean plants (variety 2830E3) grown in pots. Enzymes were produced as described in Example 2. Prior to inoculation, 0.5 mL of neutral protease (SEQ ID NO: 127), esterase B (SEQ ID NO: 89), or chitinase 19F (SEQ ID NO: 182) free enzyme solution was applied to the soil around the base of each plant, or 0.5 mL of water was applied for the control (30 plants per treatment). Then, hatched SCN juveniles were applied to the soil around each plant as described in Example 2, and three weeks later, cysts per gram of root tissue was determined as described in Example 2. The data was analyzed as in Example 2 and appears in Tables 33 and 34.
To determine the efficacy of recombinant strains applied to soil, a controlled environment trial was performed as described in Example 18 above (Reduction of soybean cyst nematode reproduction by enzymes applied to soil), with the exception that a recombinant strain expressing neutral protease (SEQ ID NO: 127) was applied instead of a free enzyme solution. The recombinant strain was produced as in Example 3, and the treatment applied to soil as a whole cell broth.

[3] = system: Fall armyworm (Spodoptera frugiperda); experiment: Diet-surface overlay (DSO) bioassay on Fall armyworm; assay type: in vivo; details: for Larva Stage I / Larva Stage II / Larva Stage III / Larva Stage IV / Dead Larva: Fall armyworm
Experimental: Diet-surface overlay bioassays are conducted with artificial diet mixes without antibiotics in 1.5 cm^2 cell bioassay trays(s). Artificial diets are commercially available from Southland Products Inc. Diets were prepared by dispersing 0.5 mL of molten diet to each 1.5 cm^2 cell. After solidification, 0.1 mL enzyme treatments were dispersed on top of diet in each cell and the tray was gently rocked in an orbital shaker to spread the liquid uniformly over the diet surface. Trays were placed under clean airflow until the surface of each cell was uniformly dried. One or two 16-cell sections were used per treatment (the number in larvae treated was 16 or 32).
One healthy first instar larva was placed into each treatment cell, each 16-cell section was covered with a re-sealable lid and incubated at 27° C. and light-dark period of 16:8 hrs. After 7 days, and according to the species, the number of individuals in the following developmental categories was recorded.
Negative/untreated controls were treated with filtered water and positive controls were treated with lethal doses of Bacillus thuringiensis subsp. Kurstaki (Btk) spores at 1000 ppm.

[4] = system: SCN juveniles (SCN HG type 1.2.5.7, race 2); experiment: In-vitro plate assay of SCN juvenile viability (difference in percent death); assay type: in vivo
Experimental: (§1) SCN eggs were obtained from SCN HG type 1.2.5.7, race 2. Eggs were rinsed 4 times with sterile water. Eggs were transferred to a 6-well plate and resuspended in 5 mL of 3 mM ZnSO4. The plate was sealed with parafilm, covered with aluminum foil to prevent light from entering the plate, and placed in a plate growth chamber at 25° C. and 80% relative humidity. After 6-7 days of incubation, an estimate of hatched SCN juveniles was obtained from the well to determine the overall number of juveniles per 10 μL. The concentration of the hatchery solution was adjusted until it consisted of 20-30 juveniles per 10 μL.
Potato dextrose agar media containing chloramphenicol and chlortetracycline was prepared and added to sterile twenty-four-well cell culture plates (1 mL per well). The plates were divided according to the pre-determined N-value for each treatment (N=12-24). Each treatment being tested was added to the agar surface within each well at a rate of 40 μL per well. Without allowing the treatments to dry, 10 μL of the prepared nematode mixture was added to the agar surface within each well.
To quantify the treatments' effects on nematode viability, the nematodes were examined under a dissecting microscope at 20× magnification. Initial (TO) values for the number of live juveniles, number of dead juveniles and total number of juveniles were recorded immediately after preparation of each well. The plates were then wrapped in parafilm around the open edge, encased in aluminum foil, and placed in secondary containment. The secondary containment was placed in a plant growth chamber at 25° C. and 80% relative humidity. At approximately 24 hours post addition of juveniles, the plates were evaluated, and the number of live juveniles, dead juveniles and total number of juveniles were recorded (T24).
The difference in percent death at T0 vs T24 was calculated by subtracting the percent dead at TO [(#dead juveniles/total #juveniles)×100] from the percent dead at T24 [(#dead juveniles/#total juveniles originally present)×100]. […] If the ANOVA indicated a significant difference existed among treatments, Tukey's HSD post hoc test was used to perform a pairwise contrast between each set of treatments. Different letters denote statistically significant results at P<0.05.
as §1, with “from” for “from SCN”, “rinsed four” for “rinsed 4”, “and 80-90%” for “and 80%”, “from each” for “from the”
Potato dextrose agar media containing chloramphenicol and chlortetracycline was prepared and added to sterile twenty-four-well cell culture plates (1 mL per well). The plates were divided according to the pre-determined N-value for each treatment (N=24). […]
To quantify the treatments' effects on nematode viability, the nematodes were examined under a dissecting microscope at 20× magnification. Initial (TO) values for the number of live juveniles, number of dead juveniles and total number of juveniles were recorded. […]

[5] = Table 11, free enzyme seed treatment 2 fl. oz. per unit of seed (ILEVO 0.15 mg active ingredient per seed), soybean P18A98X, 3 weeks after inoculation
[6] = Table 48, chitinases, number of individuals of n = 32, DSO bioassay
[7] = Table 50, esterases, number of individuals of n = 32

B1: Chitinase 19F (SEQ ID NO: 182): Streptomyces coelicolor Chitinase F (Chi19F) (protein)
chain: ASCSSYHAWSADANYNTGDIVRYTDGKAYIAEHANPGYDPLISTWYWDPYACDGGSQTPVGNFVVSEAQFNQMFPGRNSFYTYSGLTAALSAYPGFANTGSDTTKKQEAAAFLANVSHETGGLVYIVEQNTANYPHYCDWNQPYGCPAGQAAYYGRGPIQLSWNFNYKAAGDALGIDLLGNPWLVQNDAAVAWKTGLWYWNTQSGPGTMTPHNAMVNGAGFGQTIRSINGSLECDGKNPAQVQSRVTKYQQFAQILGVSPGGNLYC
modifications: Chitinase F (Chi19F); Streptomyces coelicolor
Average cysts per g of root tissue [1, 5]: 48.8 cysts per g of root tissue
Average cysts per g of root tissue ([1]; Table 12, free enzyme seed treatment 2 fl. oz. per unit of seed (ILEVO 0.15 mg active ingredient per seed), soybean P18A98X): 296.9 cysts per g of root tissue
% Comparison to Control (figure in parentheses) [2]: −32%
% Comparison to Control [2]: reduced SCN reproduction
% Comparison to Control ([2]; listed as Chitinase 19F free enzyme (SEQ ID NO: 182)): 68%
Average cysts per g of root tissue [2]: 95.6 cysts per g of root tissue
Larva Stage I [3, 6]: 4
Larva Stage II [3, 6]: 14
Larva Stage III [3, 6]: 5
Larva Stage IV [3, 6]: 6
Dead Larva ([3]; Table 48, chitinases, number of individuals of n = 32, DSO bioassay, dose per treatment in mU/mL Diet): 3
Difference in Percent Death of Nematodes for 0 to 24 Hours ([4]; Table 32, 40 μL per well of each treatment, water only 4%): 24%

B2: Esterase B (SEQ ID NO: 89): Bacillus subtilis Esterase (EstB without signal sequence) (protein, listed as Bacillus subtilis)
chain: ESVHNPVVLVHGISGASYNFFAIKNYLISQGWQSNKLYAIDFYDKTGNNLNNGPQLASYVDRVLKETGAKKVDIVAHSMGGANTLYYIKYLGGGNKIQNVVTLGGANGLVSSTALPGTDPNQKILYTSIYSLNDQIVINSLSRLQGARNIQLYGIGHIGLLSNSQVNGYIKEGLNGGGLNTN
modifications: Esterase (EstB H191 without signal sequence)
Average cysts per g of root tissue [1, 5]: 19.6 cysts per g of root tissue
Average cysts per g of root tissue ([1]; Table 15, seed treated with whole cell broth, soybean P18A98X): 56.3 cysts per g of root tissue
Average cysts per g of root tissue ([1]; Table 25, dried formulation 0.04 units of enzyme activity per seed, liquid 2 fl oz per unit of seed, soybean 3230E3): 233.2 cysts per g of root tissue
% Comparison to Control (figure in parentheses) [2]: −16%
% Comparison to Control [2]: reduced SCN reproduction
% Comparison to Control ([2]; listed as Esterase B free enzyme (SEQ ID NO: 89)): 84%
Average cysts per g of root tissue [2]: 117.3 cysts per g of root tissue
Larva Stage I [3, 7]: 3
Larva Stage II [3, 7]: 4
Larva Stage III [3, 7]: 14
Larva Stage IV [3, 7]: 10
Dead Larva ([3]; Table 50, esterases, number of individuals of n = 32, DSO bioassay, dose per treatment in U/mL Diet): 1
individuals with delayed development ([3]; text to Table 50, esterases, n = 32): 67%
Difference in Percent Death of Nematodes for 0 to 24 Hours ([4]; Table 28, 40 μL of each treatment per well, fertilizer diluted to 3% v/v): 3%
difference in percent death over twenty-four hours relative to the combination treatment ([4]; single treatment vs Esterase B + 10-34-0 fertilizer combination): −7%
